Each sequence was assayed on MCF10A (assay: 5+ nucleoli phenotype percent effect (relative to siNT 0% and siKIF11 100%); higher = more cells with five or more nucleoli). Conditions: 20 nM; 72 h.
Description: (§1)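 After 72 h, cells were fixed and stained with Hoechst and anti-fibrillarin, and nucleoli per nucleus were counted with CellProfiler. Values are plate-adjusted percent effect for the one-nucleolus and 5+ nucleoli phenotypes, normalised to siNT (0%) and to the positive controls siNOL11 or siKIF11 (100%), as the mean of biological triplicates. Percent viability is the nuclei count relative to siNT.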

Row | Sequence | 5+ nucleoli phenotype percent effect [%]
1 | UGACCCCUUCUGUCUCCCUAG [hsa-miR-6846-3p] | 10.3
2 | UUAGUCUCAUGAUCAGACACA [hsa-miR-4474-5p] | 35.6
3 | CACAAGGUAUUGGUAUUACCU [hsa-miR-624-3p] | -46.2
4 | UCUCACACAGAAAUCGCACCCGU [hsa-miR-342-3p] | -4.22
5 | AAAGUGCAUCUUUUUAGAGGAU [hsa-miR-519c-3p] | 110
6 | ACCAGCGCGUUUUCAGUUUCAU [hsa-miR-4738-5p] | 13.4
7 | GCCCCUGGGCCUAUCCUAGAA [hsa-miR-331-3p] | 8.19
8 | UGGAGGAGAAGGAAGGUGAUG [hsa-miR-765] | 16.3
9 | UCGACCGGACCUCGACCGGCU [hsa-miR-1307-5p] | 13.2
10 | CCAAAUCUUGAUCAGAAGCCU [hsa-miR-4762-5p] | 26.6
11 | CGUGGAUAUUCCUUCUAUGUUU [hsa-miR-376b-5p] | -14
12 | ACAGACUUGCUGUGAUGUUCA [hsa-miR-499b-5p] | -7.28
13 | GUUUAACCUUUUGCCUGUUGG [hsa-miR-552-5p] | 32
14 | AUAAUACAACCUGCUAAGUGCU [hsa-miR-374c-5p] | -36.9
15 | UAGUUCUUCCCUUUGCCCAAUU [hsa-miR-5584-3p] | -41
16 | ACGGUGCUGGAUGUGGCCUUU [hsa-miR-1250] | -44.5
17 | CACACACUGCAAUUACUUUUGC [hsa-miR-603] | 19.5
18 | ACAGUAGUCUGCACAUUGGUUA [hsa-miR-199a-3p] | 18.7
19 | CAAGGGACCAAGCAUUCAUUAU [hsa-miR-4475] | -16.1
20 | UGGUCUAGGAUUGUUGGAGGAG [hsa-miR-601] | -3.95
21 | UGGAUUUCUUUGUGAAUCACCA [hsa-miR-876-5p] | 24.8
22 | AUGGAGCUGGAACCAGAUCAGGC [hsa-miR-6874-5p] | -35.8
23 | CAGCCGCCGCCUGUCUCCACAG [hsa-miR-6746-3p] | 7.39
24 | UUCAUUCGGCUGUCCAGAUGUA [hsa-miR-1298] | 33.4
25 | UGCUGUAUUGUCAGGUAGUGA [hsa-miR-4999-5p] | -10.3
26 | UGGGGGAGAUGGGGGUUGA [hsa-miR-6870-5p] | -6.86
27 | CCCCUGGGGCUGGGCAGGCGGA [hsa-miR-6791-5p] | 45.9
28 | AGAAGGAAAUUGAAUUCAUUUA [hsa-miR-1252] | 32.3
29 | UAACUGGUUGAACAACUGAACC [hsa-miR-582-3p] | 31.1
30 | UUUCCCUUUCCAUCCUGGCAG [hsa-miR-5006-3p] | 18.5

The sequences below were run on MCF10A (assay: percent viability (nuclei count relative to siNT); higher = more viable cells). Conditions: 20 nM; 72 h.
Description: as §1

Row | Sequence | percent viability [%]
31 | UGCCCUGCCUGUUUUCUCCUUU [hsa-miR-3173-5p] | 148
32 | GGCUGGAGCGAGUGCAGUGGUG [hsa-miR-3135b] | 43.2
33 | ACACAGUGCUUCAUCCACUACU [hsa-miR-3681-3p] | 76.6
34 | CAGGGAGAAGGUGGAAGUGCAGA [hsa-miR-6760-5p] | 24.8
35 | AUGGAUAAGGCUUUGGCUU [hsa-miR-1261] | 50.3
36 | CGUCUUACCCAGCAGUGUUUGG [hsa-miR-200c-5p] | 79
37 | CUUUGAGCACAUGAGCAGACGGA [hsa-miR-8055] | 92.5
38 | UUCAUGAACUGGGUCUAGCUUGG [hsa-miR-7154-5p] | 60.8
39 | AUUAAGGACAUUUGUGAUUGAU [hsa-miR-4477b] | 37.8
40 | GCUGCACCGGAGACUGGGUAA [hsa-miR-3130-3p] | 65
41 | GAGGCUGAGCUGAGGAG [hsa-miR-4478] | 22.9
42 | CAGAAGGGGAGUUGGGAGCAGA [hsa-miR-3154] | 17.4
43 | UCGUGGCCUGGUCUCCAUUAU [hsa-miR-1204] | 48.3
44 | UGUAGUUGUAUUGUAUUGCCAC [hsa-miR-4703-3p] | 40.8
45 | GGUGGCCCGGCCGUGCCUGAGG [hsa-miR-663b] | 124
46 | GCGGUGGGGCCGGAGGGGCGU [hsa-miR-6786-5p] | 96.7
47 | AAAGGUAAUUGCAGUUUUUCCC [hsa-miR-548ai] | 155
48 | UCUGUAUUCUCCUUUGCCUGCAG [hsa-miR-4742-3p] | 24.4
49 | UGAUGGAGCUGGGAAUACUCUG [hsa-miR-8082] | 22.3
50 | UAAGUGCUUCCAUGUUUCAGUGG [hsa-miR-302c-3p] | 78

Row | Sequence | percent viability [%]
51 | AAAAGUAAUUGCGGUUUUUGCC [hsa-miR-548c-5p] | 166
52 | AUUGGACUGCUGAUGGCCCGU [hsa-miR-4529-3p] | 48.3
53 | AAGCAUUCUUUCAUUGGUUGG [hsa-miR-1179] | 98.7
54 | AUGCGGACCUGGGUUAGCGGAGU [hsa-miR-4754] | 38.8
55 | AAAGGUCAUUGUAAGGUUAAUGC [hsa-miR-3974] | 39.8
56 | UUGGGAGGGAAGACAGCUGGAGA [hsa-miR-6780a-5p] | 13.4
57 | UUGGCCACAAUGGGUUAGAAC [hsa-miR-588] | 40.2
58 | UUGCCAUACAUAGACUUUAUU [hsa-miR-5590-5p] | 44.8
59 | CCUAUUCUUGGUUACUUGCACG [hsa-miR-26a-1-3p] | 49.7
60 | UGACCCCUUCUGUCUCCCUAG [hsa-miR-6846-3p] | 47.5
61 | UUAGUCUCAUGAUCAGACACA [hsa-miR-4474-5p] | 29.8
62 | CACAAGGUAUUGGUAUUACCU [hsa-miR-624-3p] | 21.1
63 | UCUCACACAGAAAUCGCACCCGU [hsa-miR-342-3p] | 78.4
64 | AAAGUGCAUCUUUUUAGAGGAU [hsa-miR-519c-3p] | 119
65 | ACCAGCGCGUUUUCAGUUUCAU [hsa-miR-4738-5p] | 51.5
66 | GCCCCUGGGCCUAUCCUAGAA [hsa-miR-331-3p] | 61.2
67 | UGGAGGAGAAGGAAGGUGAUG [hsa-miR-765] | 21.1
68 | UCGACCGGACCUCGACCGGCU [hsa-miR-1307-5p] | 78.8
69 | CCAAAUCUUGAUCAGAAGCCU [hsa-miR-4762-5p] | 106
70 | CGUGGAUAUUCCUUCUAUGUUU [hsa-miR-376b-5p] | 22

Row | Sequence | percent viability [%]
71 | ACAGACUUGCUGUGAUGUUCA [hsa-miR-499b-5p] | 35.2
72 | GUUUAACCUUUUGCCUGUUGG [hsa-miR-552-5p] | 98.1
73 | AUAAUACAACCUGCUAAGUGCU [hsa-miR-374c-5p] | 45.3
74 | UAGUUCUUCCCUUUGCCCAAUU [hsa-miR-5584-3p] | 32.6
75 | ACGGUGCUGGAUGUGGCCUUU [hsa-miR-1250] | 25
76 | CACACACUGCAAUUACUUUUGC [hsa-miR-603] | 60.9
77 | ACAGUAGUCUGCACAUUGGUUA [hsa-miR-199a-3p] | 67.2
78 | CAAGGGACCAAGCAUUCAUUAU [hsa-miR-4475] | 37.7
79 | UGGUCUAGGAUUGUUGGAGGAG [hsa-miR-601] | 58.5
80 | UGGAUUUCUUUGUGAAUCACCA [hsa-miR-876-5p] | 143
81 | AUGGAGCUGGAACCAGAUCAGGC [hsa-miR-6874-5p] | 30.7
82 | CAGCCGCCGCCUGUCUCCACAG [hsa-miR-6746-3p] | 36.2
83 | UUCAUUCGGCUGUCCAGAUGUA [hsa-miR-1298] | 130
84 | UGCUGUAUUGUCAGGUAGUGA [hsa-miR-4999-5p] | 48.1
85 | UGGGGGAGAUGGGGGUUGA [hsa-miR-6870-5p] | 32.7
86 | CCCCUGGGGCUGGGCAGGCGGA [hsa-miR-6791-5p] | 107
87 | AGAAGGAAAUUGAAUUCAUUUA [hsa-miR-1252] | 148
88 | UAACUGGUUGAACAACUGAACC [hsa-miR-582-3p] | 106
89 | UUUCCCUUUCCAUCCUGGCAG [hsa-miR-5006-3p] | 31.7
